Experimental data published in paper PMC7669869 (2020).

How the values were obtained:
JT006 = JT006 (UniProt Q15848 155-161, Tyr159 was replaced with Ser | Asp was applied to substitute Ala161, unnatural amino acid Nva incorporated (position not given); FITC labeled peptide in the cell imaging); assay: FRET; table row labelled IC50, legend says Kd
ADP355 = assay: FRET; table row labelled IC50, legend says Kd

Kd (JT006) [nM] | Kd (ADP355) [nM] | Binder
1200 |  | AdipoR2 (overexpressed in HEK293 cells) (receptor) MNEPTENRLGCSRTPEPDIRLRKGHQLDGTRRGDNDSHQGDLEPILEASVLSSHHKKSSEEHEYSDEAPQEDEGFMGMSPLLQAHHAMEKMEEFVCKVWEGRWRVIPHDVLPDWLKDNDFLLHGHRPPMPSFRACFKSIFRIHTETGNIWTHLLGCVFFLCLGIFYMFRPNISFVAPLQEKVVFGLFFLGAILCLSFSWLFHTVYCHSEGVSRLFSKLDYSGIALLIMGSFVPWLYYSFYCNPQPCFIYLIVICVLGIAAIIVSQWDMFATPQYRGVRAGVFLGLGLSGIIPTLHYVISEGFLKAATIGQIGWLMLMASLYITGAALYAARIPERFFPGKCDIWFHSHQLFHIFVVAGAFVHFHGVSNLQEFRFMIGGGCSEEDAL
1400 | 1100 | AdipoR1 (overexpressed in HEK293 cells) (receptor) MSSHKGSVVAQGNGAPASNREADTVELAELGPLLEEKGKRVIANPPKAEEEQTCPVPQEEEEEVRVLTLPLQAHHAMEKMEEFVYKVWEGRWRVIPYDVLPDWLKDNDYLLHGHRPPMPSFRACFKSIFRIHTETGNIWTHLLGFVLFLFLGILTMLRPNMYFMAPLQEKVVFGMFFLGAVLCLSFSWLFHTVYCHSEKVSRTFSKLDYSGIALLIMGSFVPWLYYSFYCSPQPRLIYLSIVCVLGISAIIVAQWDRFATPKHRQTRAGVFLGLGLSGVVPTMHFTIAEGFVKATTVGQMGWFFLMAVMYITGAGLYAARIPERFFPGKFDIWFQSHQIFHVLVVAAAFVHFYGVSNLQEFRYGLEGGCTDDTLL
